# Experiment: soluble fraction after stress (log2 fold change); higher = more stays soluble; pooled small domains, quantitative proteomics
# Conditions: stress: 50 degC
# Method in brief: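 Pooled custom libraries of small protein domains were each held under stress at 50°C. The read-out, high-throughput quantitative proteomics, tracked how much of each protein stayed soluble. This is reported as a base-two log fold change used to indicate aggregation propensity. Higher values mean more protein remains in solution.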
row,Sequence,soluble fraction (log2)
1,HMSNNLAYSQFLDRVKNKEIRKVEIRGQSIVGYTSNNETFKTYAPLNDPKMYDELLTNDVQVQVDPP,0.0519
2,HMNTTTTKVVSVSSLNMRSGPSTSYNIIEVLTKDTQVEVISVEDGWAKIKYNSKTGYVSNQYLSDKK,0.0146
3,HMTISAQAITPRLEVIKNFVLMEEWDAAQTQLEKLRSFTEIWSLDPLFSAMKKKDGQKISDWITGFIKDNM,-1.15
4,HMIAALEGKQAMVLDQVSLHHGQVKLGGEVWTARPLNDQDVYEPGDRVTVMRIDGATAVVWRN,-0.281
5,HMQVEYTRGELLQDLKEENVLYATITPSRETPTGEVDFVFKDKSIKTLYVTDVSEIEGLLMDYGIDPEVKK,-0.0511
6,HMSNLNHSFQYKKNIGRKISLTYLGRDNESISKIYELIDSNDSGILVKNKNVEIFIHYEKIVSAKIKVS,-0.943
7,HMKDRDISNAVLNILSKDSDHNYNYKQIASVLGVKDPFVRKRIVSVLAQLTKNGQLEEISRGKYQIKN,-0.618
8,HMNIFAHQIGKLRTERHLSQTDVAKRLYVSRQAVSKWENGDAEPSLDNLIALAKLFNVSLDNLITGQ,-0.49
9,HMGSGVNVTVNGKRMNLPLKDDHIIFVDIFNYIDFDLSKPKGSIVLKLNGRDAGYTDPIKDGDVIDIYWQ,0.33
10,HMSMNGNMIHATVIWKGRYFLVKMFFPQLTKPKRAEVQAQIEKAYPGSRVASYHITDYKPGEQFLHV,-1.51
11,HMEPDTVVVPNFVGKVYASEIEGNEAYSDFTFVIKEGNDPEQDIGVVLKQTPNEGLEVKKGKEITLTINQ,-0.0593
12,HMFQNYTDAVVVASKTFFYNMPDESTRKSAYLIQGDRIMVEKSQRNFVYVTFTNEASGRTTTGWLKSDDLE,-2.9
13,HMKSISMANGNVQLRINGVLASSLEVAALSPEDIKRVEYHDNPGLRYGEGIDIVLDYITIKRT,-0.384
14,HMSVLLDDLSPREREILQLVVEGHSSTKIAGMLGLASATVDTYRSRLMAKLHIDNLPDLVRFAIRHGLIS,-1.22
15,HMKTVKPSQIPYSEFLKLVETDKINDVSMVGRNIIGHLDDGSKFKTYTPPNDPTLIEKLSSHNIVINAAPE,0.149
16,HMGQISLSVNAIPEKAEVILDGNSIGNTPIRKNTITPGSHMFEIEKKGYAPISYDIYVNPSKAINLDFFM,-0.63
17,HMVQIQDIAFSEFLNELEKGNILDVNIKGDLINGNMLDGKKFKTYAPYDPSLVEKLSKQNVTINVEPVN,0.0938
18,HMTPKVAVPSFVGWKFEDVERQLGTMGLIRGKVDNHPSEEYSEGRVIWQSVLGEVEKGKVIDFWVSTGPE,-0.0362
19,HMKTTKDSVFEYIQKELMTNEEYKQGINTNVIAQHFGLQRSNISTILNELVKEDRLEKTNTRPVLYFLPQ,-0.0929
20,HMYSDERLQTFMELLPFFVEELSNKHVTRYNVWQNYREAYPNGYGRSQFFFHLGQNLEAKKK,-1.17
21,HMDREILWTNYVAARKQEFIASSIDTIGAEYLDNRRFWDTQFEREWTIIAERLASGFGLTDDILSIVGSDF,-4.12
22,HMLKPVVLLGARGLTDAVEKEVERALDEHGLIKIHVPSDDREERDEIYTTLADKLNAARIQAIGKMLVLW,-0.162
23,HMGVSVNVQPAILDWAMQKAQMGNAGSSVIEMIAKWISGEKAPTFNQIEDVSKKISIPFGFFFLKEPPIE,-0.951
24,HMSDSAFAEMRRELEALRNSNAEYERALSNFFPEAEDKALAAEAFYQNREYDELVAEREEANVIDGLKR,-0.094
25,HMSDPSAQADALFNEGKTAEAFNVLLRLIEDSPEDQREDYRVRLLDLFRIAGNTPEVKAARRRLSALLM,-0.252

row,Sequence,soluble fraction (log2)
1,HMSANVSMEEALRRTSQAHSLAGKWMRRVLQMAQGRDLIEQMQREAQEAHLPELIGMSVQLEFIRRG,-0.11
2,HMGDWITGTVTRIADNGWGTFQPENAHNTVSIPPKMVADNQLKEADSIKIIAEPSPDGTKTFIKAISRE,-0.00712
3,HMASRSQTEIMHLLSSGLPKHELVTALQSLLGISKPTAYKYLSQDVSIAYDHMVKILEYPPFQRVLYQ,-1.34
4,HMAEMRYLDQIYEVNVPLPDLSLEDGDLLARWAVNFHQRYEELFSYRQSDQEIRLVTLRVTVLGELP,-0.653
5,HMDEAEELYQAVQALKPKYREVILLHYYQGLRVGEIAAILRAPQSTVSIRLRRARQMLNRMLG,-0.548
6,HMNVKVSVDDIARPGLMASGRVTFADGNRGMWYVDEMGRLGIDPEVEGYQPSEADIQAFQRELQSVMES,0.102
7,HMIVVTSPQVTDERIAEIVAFIEKHGVQAHVSRGTDRTVIGIIGKADPVLAEHLRSMQGVENVIKIS,-0.0652
8,HMNKPTSMYKLRLLLKHYHAGASKRWMADVLDISRSTLNVYLARIESLNLAFEEWEALSDLEVSRLLINP,-3.05
9,HMKAAQDQDQAATLLQKATGVNQDQAKLAATVLFKEQSVTPIRQAIASGDYYQAYQDAKSLQQQ,-0.144
10,HMNLGNLLKIYRKNSLLTQQQVADALNINRTTYTYYETGKTEPSIDTLHKLIKIFGITYDDLL,-2.7
11,HMGKTRSTDRTRRAILDAASDLMGKHGTSVSLARIAEAAGMSKGGLLHHFPSRNDLIRALGED,0.189
12,HMTPNATWQDDAQSLLRDLIQHQPVLIQISAAKRLRDQAEQISRITGGDTVTRDHVEAAGHALGMGVT,0.0517
13,HMNISRESLIGQILATLNKNPEEGFNYKQIAKRLNITDSPGRQMISDLLRELSKHGSLQEISHGKYKIKV,-0.226
14,HMDDLFGNAIEMFNNQRYDMTYELLVQLLSETPNNEKAWQLLADTKFMLGDYDDALHIVGKAAK,-0.89
15,HMNEYLPEAVQKLLEVMEYDIPYTSNELMERLGLKAKEGFRRNYLHPAMEMKLIQMTIPDKPNSRNQRYLR,-2.11
16,HMEIIFVEHKVRPGESVWLIARKYKVKKNHILAVNNLSEKSIIRPKQILKIPTSGYDQYKKSVE,-3.22
17,HMTGDISRALDQLPADMRTVLILYALEKQRYEDIAQITGVSVGTVKSRLNRARQKLAAILANQREQNE,-0.488
18,HMSRAARLALDALPDEWAQFAESRGLAGSAMAETWETFRDYWQAQPGQKGVKADWAATWRNWVRRETQNRG,-0.167
19,HMEARYQLREVSLDGLRSGMILNADVLSTDGVLMARKGLEVSGLLRSRLEAFAKMERIEPTFKVLVPIAPP,-0.389
20,HMNQSKYQTIADELKSKILSGEYPENTTIPPELQLQKDYQVSRHTIRQAIALLANEGFLRKEKGSGTYVDV,0.0512
21,HMERAFRILELFDLKQDELPITEIAERTGLPISTAHRLLSTLETLGYIAQNPDNGRYRLGLQTFVLGSR,-0.987
22,HMRTGLSGMIGEIGIVKQAIDPEGKVAVHGELWKARADVALAAGQTVRVVAVDGLTMTVEATDSK,-0.0264
23,HMSNLTDLVSAKEAEVYLHFLESGSTAGMTEAELRAVRKIEELIQSNKIDYNGILRIRNETVK,0.139
24,HMIPDMSLELAMSEQTSKGDLYGDLPNDKLALMFNAISKKVPHTDDHKRKMVAIQTILESRAS,-0.251
25,HMDNEVTIAVQVNGKLRDKLIVALDTPNEKIEQLALALPKVIQNTSGLTVRKVIVIPNRLVNIVA,-0.171

row,Sequence,soluble fraction (log2)
1,HMEREQPFAVTEAYRGMRLDRFLQAMLPRMSRAAIQDAIDNRVRLGSGRAAKASLRPAIGDTVFFGQRI,-0.822
2,HMVSDSAELSAFVADVIKENAQAVADYKGGKTNVFGWLMGQIIKKSGGKATPAAAAALLKAELEK,0.0521
3,HMELEKIRPDLDGLEIMAILGISPSPIVGRAYQYLLDLRMDRGPLGPDAAKAELLNWWSLNQPK,-1.3
4,HMSGSILVQVSATDLNIRKGPGTNYGTTGKYTGKGTFTIVETRSGQGSNAGWGKLKSGAGWISLDYAKR,-1.38
5,HMTEFFNMQDMFYFKLTGDVTSKERRQSLGKILGIGYGNAAQMVSRLNNYGITKEEFTNAINEIEKQMEAG,-0.775
6,HMKGVPGIGDYVKLSGGSTVGKVLSISGKKAEVAFGLLRTTTELSKLEKVRKPKELLQSGVSS,0.269
7,HMNYGDVIEGQIMHVDRDELLVDIGSKSEGIIPAREFSTLTDEERAALSVGDHVLVFVVQAENQEGQAV,0.0712
8,HMTGKVKWYDADKGFGFVTEDGGRDVYVRKSALPQGVETLKAGQRLEFGIAEGRRGPQALSVR,0.0817
9,HMTTKYVAVHESKDGYWTIASKPSSKEDAEAMLGGTPKNEVGKVVTLEEAKAHKKTLGEEYLYE,0.272
10,HMKEVKAPMPGMVLRVEVAPGQEVQEGDPLLVLEAMKMENNLKSPASGTIKSVHVEAGKAVEKGAVLVVF,-0.0671
11,HMNSTRAPYLLDFEEDAAIREARRAGLVPRIARQPSGEPVGRVILQSHDYDYPMKRGDTILITISSG,-0.737
12,HMEQFDFTILRELRKRAGLSIGEVSAESGVSAAVISKLERNRTRAELDTLYRLARVFGITAAELLNLAEA,-2.06
13,HMDDDAELLLKKLSAAGGELPFHDRSEPAEIEAAFGLSKSAFKRALGKLLKAGKVVKTQQGIQLK,0.0395
14,HMPKHDWDAFAGAIARRVHDHGMPVSQGELVRDMMDWFAGRKDFPPPDERTVRRKVSAIWRELNG,-1.02
15,HMTKTKADKIDYAIGDSGTEPPTEDKWTDLAHLPLIKAGQFQWTRRTEYYSDGSTAVSYNIAKSE,0.0286
16,HMRISKRQLILESAAAIINEKGADYLTLDAVAQRAGISKGGLFYHFKSKDELIKELVNYANN,-0.14
17,HMVRSEDLIGLQGRITLATDVETRGFVELSVKGSLLRRPALSLKGPLAKNTAVVVTASNDHTLEVEAL,-0.573
18,HMTDLALHIGKTLRELRQRRGWSLDKTAQATGVSKAMLGQIERGESSPTVVTLWRISSGLQASFSEFLPP,-1.61
19,HMNPASVLDGLKITSFSPTRAIVAGPGGSRIVFDNEAVVLGGIEWDVHIQRNGIEFTSQGQTVLLLFDRS,-1.21
20,HMDGVYLKSLKQTEQHIHWSGYAQSNAWVSTLMRNLDASPWFESPLLIEIKAATINNSRSNEFDLNVRL,0.0711
21,HMGKDIYLTSGWVEKFDELNEFSNSVDNYDRLNQFGMYENAIIGDTGVIKITDEMIFDLYEKIQVPVEAGP,-0.185
22,HMVISNDEFEDYLNRATEQLVSELSSGKNPRDAVHDLALTFADQHNKSYDAYQRMADSLEARMHTL,0.0885
23,HMSDHKNANFTKVVKVAQELLQDEDDKAGITPTLIEEKISAVLAMNRRWAEGLDRAAVADELIRRFSIW,-0.42
24,HMETPEIPGLTPRQVEIMLLVGKGYSNKEIARFLTISPETVKTHLKEVFLRFGLRNRVEAIDFTRQNGL,-0.363
25,HMKEVVKVTITPSEKLKSQYPDALVSIDGKFYDLGILNNPVEFYMDKDHKISIIWSTAELVESFRI,-0.00922
